Experiment [1] concerns the target T1, human ErbB3-Fc (R&D Systems) (human, UniProt P21860 20-643).
T1 construct: Bought protein; also called wild-type ErbB3-Fc fusion; immobilized ErbB3; not shown: Fc part of the bought fusion protein; not described
Briefly: ELISA on ErbB3-Fc, soluble monovalent Sab (Example 42). (In an ELISA, binding on a coated surface is turned into a signal by an enzyme label.)

The target in experiment [2] is T1, human ErbB3-Fc (R&D Systems). The experiment is described as above. The source holds these as a separate data set.

This passage reports EC50 results from patent US20140308287A1 (SEA LANE BIOTECHNOLOGIES, published 2014).

Residue numbers refer to the chain shown, from its start. Read-outs that look alike come from different tables or passages of the source.

B1: 2995-C05 (other)
VH: EVQLLESGGGLVQPGGSLRLSCAASGFTFSDYWMHWVRQAPGKGLEWVAAISSGSSYTYYADSVKGRFTISRDNSKNTLYLQMNSLRAEDTAVYYCAKDNFILLNSWFDYWGQGTLVTVSS
surrogate light: QPVLHQPPAMSSALGTTIRLTCTLRNDHDIGVYSVYWYQQRPGHPPRFLLRYFSQSDKSQGPQVPPRFSGSKDVARNRGYLSISELQPEDEAMYYCAMGARSSVTHVFGSGTQLTVLSQPKATPSVTLFPPSSEELQANKATLVCLMNDFYPGILTVTWKADGTPITQGVEMTTPSKQSNNKYAASSYLSLTPEQWRSRRSYSCQVMHEGSTVEKTVAPAECS
notes: copies: 1 + 1
What is called EC50 is the concentration needed to bring the measured effect to its halfway point. The low end stands for higher potency in that assay, the high end for lower potency in that assay. As for B1, it took 0.015 nM to reach a half-maximal effect in experiment [1] (EC50). In other words, the picomolar range.

B2: 3000-E07 (other)
VH: EVQLLESGGGLVQPGGSLRLSCAASGFTFSNYWMHWVRQAPGKGLEWVALISGGGGNIYYADSVKGRFTISRDNSKNTLYLQMNSLRAEDTAVYYCAKDNEKNLYTWLDYWGQGTLVTVSS
light: B1 surrogate light
notes: copies: 1 + 1
For the molecule B2, a half-maximal effect in experiment [2] (EC50) was put at 0.121 nM.

B3: 3000-B06 (other)
VH: B2 VH with N31S, G53N, G54N, G56A, N57Y
light: B1 surrogate light
Turning to B3, a half-maximal effect in experiment [2] (EC50) was put at 0.084 nM.

B4: 3000-C08 (other)
VH: B2 VH with N31S, L50V, G53N, G54N, G56R, N57Y, I58K
surrogate light: B1 surrogate light
notes: copies: 1 + 1
As for B4, a half-maximal effect in experiment [2] (EC50) was put at 0.182 nM.

B5: 3000-F09 (other)
VH: B2 VH with N31S, G53S, G54S, N57I, I58T
surrogate light: B1 surrogate light
In the case of B5, it took 0.118 nM to reach a half-maximal effect in experiment [2] (EC50).

B6: 3000-H03 (other)
VH: B2 VH with N31D, A49S, G53N, N57Y, I58T
surrogate light: B1 surrogate light
In experiment [2], B6 returned an EC50 of 0.109 nM. The EC50 values of the last two molecules are within 1.5-fold of each other.

B7: 3000-D07 (other)
VH: B2 VH with N31S, A49S, G53A, G54S, G56S, N57I, I58K
light: B1 surrogate light
notes: copies: 1 + 1
In experiment [2], B7 had an EC50 of 0.152 nM. This EC50 and that of the molecule before are within 1.5-fold of each other.

B8: 3000-E01 (other)
VH: B2 VH with N31S, G53N, G54N, G56A, N57Y, I58T
surrogate light: B1 surrogate light
For B8, the EC50 in experiment [2] turned out to be 0.105 nM.

B9: 3000-B03 (other)
VH: B2 VH with G53N, G54N, G56T, N57Y, I58T
light: B1 surrogate light
notes: copies: 1 + 1
In the case of B9, the EC50 in experiment [2] amounted to 0.179 nM.

B10: 3000-A05 (other)
VH: B2 VH with N31D, G53A, G56T, N57Y, I58K
light: B1 surrogate light
Take B10: a half-maximal effect in experiment [2] (EC50) was put at 0.082 nM.

B11: 3000-A07 (other)
VH: B2 VH with N31D, L50V, G56A, N57Y, I58K
surrogate light: B1 surrogate light
With B11, the concentration for a half-maximal effect (EC50) in experiment [2] amounted to 0.087 nM.

B12: 2995-D11 (other)
VH: B1 VH with D31S, A50V, S53N, G54N, S55G, S56R, T58K
surrogate light: B1 surrogate light
notes: copies: 1 + 1
In turn, B12 had an EC50 in experiment [1] of 0.027 nM.

B13: 3000-A08 (other)
VH: B2 VH with N31S, H35N, G53N, N57I, I58K
light: B1 surrogate light
Consider B13, for which a half-maximal effect in experiment [2] (EC50) was put at 0.072 nM.

B14: 2995-H09 (other)
VH: B1 VH with D31N, A50S, S53N, S55G, S56R, T58I
light: B1 surrogate light
In experiment [1], B14 yielded an EC50 of 0.02 nM.

B15: 2995-E08 (other)
VH: B1 VH with D31S, A50G, S55G, T58K
light: B1 surrogate light
For B15, the EC50 in experiment [1] was found to be 0.039 nM.

B16: 2995-H11 (other)
VH: B1 VH with A49S, G54S, S55G, S56G, T58K
light: B1 surrogate light
Consider B16, for which a half-maximal effect in experiment [1] (EC50) was put at 0.063 nM.

B17: 2995-D03 (other)
VH: B1 VH with D31S, W33A, A50L, S53N, S56G, T58K
light: B1 surrogate light
notes: copies: 1 + 1
In experiment [1], B17 displayed an EC50 of 0.015 nM.

B18: 3000-B02 (other)
VH: B2 VH with N31S, L50V, G53S, G56N, N57Y
surrogate light: B1 surrogate light
Take B18: in experiment [2], a half-maximal response (EC50) required 0.115 nM.

B19: 2995-D01 (other)
VH: B1 VH with D31S, H35S, A50L, S53N, S55G, Y57I, T58K
light: B1 surrogate light
Molecule B19 displayed an EC50 in experiment [1] of 0.038 nM.

B20: 3000-C07 (other)
VH: B2 VH with N31S, H35S, G53N, G56S, N57I, I58K
surrogate light: B1 surrogate light
Molecule B20 had an EC50 in experiment [2] of 0.102 nM.

B21: 3000-B09 (other)
VH: B2 VH with N31D, G53S, N57Y, I58K
light: B1 surrogate light
Turning to B21, in experiment [2], a half-maximal effect (EC50) was put at 0.07 nM.

B22: 3000-A11 (other)
VH: B2 VH with N31S, G53W, N57T, I58K
light: B1 surrogate light
notes: copies: 1 + 1
Molecule B22 came in with a half-maximal effective concentration (EC50) in experiment [2] of 0.139 nM. This EC50 lies about 2-fold higher than the previous one.

B23: 2995-E12 (other)
VH: B1 VH with D31N, A50L, S56T, T58I, Y59S
light: B1 surrogate light
In experiment [1], B23 registered an EC50 of 0.04 nM. That is a picomolar value.

B24: 3000-E04 (other)
VH: B2 VH with N31D, L50V, G53W, G56A, N57Y, I58K
surrogate light: B1 surrogate light
Turning to B24, the EC50 in experiment [2] came out at 0.109 nM.

B25: 2995-G11 (other)
VH: B1 VH with D31S, A49S, S55G, S56G, T58I
surrogate light: B1 surrogate light
notes: copies: 1 + 1
In turn, B25 gave a 50% effective concentration (EC50) in experiment [1] of 0.029 nM.

B26: 2995-G10 (other)
VH: B1 VH with H35N, A50N, S53N, S55G, S56T, T58I
light: B1 surrogate light
Take B26: in experiment [1], the concentration giving a half-maximal response (EC50) amounted to 0.022 nM. This EC50 and that of the molecule before are within 1.5-fold of each other.

B27: 3000-C03 (other)
VH: B2 VH with N31S, G53N, G54N, G56T, N57Y, I58K
light: B1 surrogate light
notes: copies: 1 + 1
On to B27, for which the EC50 in experiment [2] was found to be 0.164 nM.

B28: 2995-H07 (other)
VH: B1 VH with H35N, A50L, S53N, G54N, S55G
light: B1 surrogate light
In experiment [1], B28 returned a half-maximal effective concentration (EC50) of 0.025 nM.

B29: 3000-A04 (other)
VH: B2 VH with N31S, G53A, G56T, N57S, I58K
light: B1 surrogate light
notes: copies: 1 + 1
B29 came in with a concentration for a half-maximal effect (EC50) in experiment [2] of 0.127 nM.

B30: 2995-C10 (other)
VH: B1 VH with D31S, A50G, S53G, S55G, S56A
light: B1 surrogate light
notes: copies: 1 + 1
B30 showed an EC50 in experiment [1] of 0.02 nM. That is a picomolar value.

B31: 3000-G09 (other)
VH: B2 VH with N31S, G53N, N57Y, I58K
light: B1 surrogate light
notes: copies: 1 + 1
In the case of B31, the response in experiment [2] was half-maximal at 0.158 nM (EC50).

B32: 2995-H03 (other)
VH: B1 VH with A50V, S53G, S55G, S56A, T58K
light: B1 surrogate light
As for B32, a half-maximal effect in experiment [1] (EC50) was put at 0.026 nM.

B33: 2995-C07 (other)
VH: B1 VH with D31N, A50L, S56T, T58I, Y59S, F108L
light: B1 surrogate light
B33 returned a 50% effective concentration (EC50) in experiment [1] of 0.056 nM.

B34: 2995-F08 (other)
VH: B1 VH with D31S, A49S, A50G, S53N, G54N, S55G, S56R, T58K
light: B1 surrogate light
Consider B34, for which a half-maximal effect in experiment [1] (EC50) was put at 0.059 nM.

B35: 2995-D07 (other)
VH: B1 VH with D31N, S53N, S55G, S56G, T58K
surrogate light: B1 surrogate light
notes: copies: 1 + 1
In the case of B35, a half-maximal effect in experiment [1] (EC50) was put at 0.033 nM.

B36: 2995-D08 (other)
VH: B1 VH with S53W, S55G
light: B1 surrogate light
In experiment [1], B36 returned a concentration for a half-maximal effect (EC50) of 0.052 nM.
